Assay: yeast display, Sf9 membrane polyspecificity reagent, FACS + sequencing; frameworks hold sequencing errors
Outline: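 Using colony PCR, genes from sorted yeast display clones were amplified, then sequenced on MiSeq at 2 × 250 and filtered by CDR length. The clones had been stained with 10% biotinylated, detergent-solubilized Sf9 membrane reagent for 1 hour at 4 °C and sorted by FACS into low and high (top ~1%) gates on anti-HA and streptavidin fluorescence. Polyreactivity labels come from the gate of origin.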

| Sequence | polyreactivity (PSR sort gate) |
| --- | --- |
| QVQLVESGGGLVQAGGSLRLSCAASGLTFWRYAMGWYRQAPGKERELVAGISSSTGSTYYADSVKGRFTISRDNAKNTVYLQMNSLKPEDTAVYYCNAYVRRIVRSYYWGQGTQVTVSS | high polyreactivity |
| QVQLVESGGGLVQAGGSLRLSCAASGLTFWYYAMGWYRQAPGKERELVAAIDWSGASTYYADSVKGRFTISRDNAKNTVYLQMYSLKPEDTAVYYCNTVYYIGDDYWGQGTQVTVSS | high polyreactivity |
| QVQLVESGGGLVQAGGSLRLSCAASGLTFWYYDMGWYRQAPGKERELVAAISRCGGTTYYADSVKGRFTISRDNAKNSVYLQMNSLKPEDTAVYYCAAVSFGFWVTEYYYWGQGTQVNVSS | high polyreactivity |
| QVQLVESGGGLVQAGGSLRLSCAASGLTFYGYGMGWYRQAPGKERELVASITSGGNTYYADSVKGRFTISRDNAKNTVYLKMNSLKPEDTAVYYCAVTAIALYYSSGYYWGQGTQVTVSS | low polyreactivity |
| QVQLVESGGGLVQAGGSLRLSCAASGLTFYHYAMGWYRQAPGIERELVAAISYSGSRTYYADSVKGRFTISRDTAKNTVYLQMNSLKPEVTAVYYCAAKRTKEYDYWGQGTQVTVSS | high polyreactivity |
| QVQLVESGGGLVQAGGSLRLSCAASGLTFYHYHMGWYRQAPGKERELVAAITIGGSTYYADSVKGRFTISRDNAKNTVYLQMNSLKPEDTEVYYCAAEPQRDSSGLDYWGQGTQVTVSS | low polyreactivity |
| QVQLVESGGGLVQAGGSLRLSCAASGLTFYIYAMGWSRQAPGKERELVAGISWIGGRTYYADSVKGRFTISRDNAKNTVYLQLNSLKPEDTAVYYCIAYLSYTSRGRYYKYDYWGQGTQVTVSS | high polyreactivity |
| QVQLVESGGGLVQAGGSLRLSCAASGLTFYIYAMGWYRQAPGKEREFVAAIRRSDARTYYADSVKGRFTISRDNAKNTVYLQMNSLKPEDTAVYYCARPPWFTGYNSGYWGQGTQVTVSS | high polyreactivity |
| QVQLVESGGGLVQAGGSLRLSCAASGLTFYIYAMGWYSQAPGKERELVAAVSNGGGNTYYADSVKGRCTISRDNAKNTVYLQMNSLKPEDTAVYYCAAKNDYVYPINPLYYYWGQGTQVTVSS | high polyreactivity |
| QVQLVESGGGLVQAGGSLRLSCAASGLTFYLYAMGWNRQAPGKERELVAAINSRGGNTYYADSVKGRFTISRDNAKNTVYLQMNSLKPEDTAVYYCNAGRTFYSYAYGYWGQGTQVTVSS | high polyreactivity |
| QVQLVESGGGLVQAGGSLRLSCAASGLTFYPNAMGWYRQAPGKEREFVASISISGRTYYADSVKGRFTISRDNAKNTVYLQMNSLKPEDTAVYYCAARYVRSGLYRKYDYWGQGTQVTVSS | high polyreactivity |
| QVQLVESGGGLVQAGGSLRLSCAASGLTFYQYAMGWSRQAPGKERELVAAISKSAGSTYYADSVKGRFTISRDNAKNTVYLQMNSLKPEDTAVYYCAARVLRLRYDYWGQGTQVTVSS | high polyreactivity |
| QVQLVESGGGLVQAGGSLRLSCAASGLTFYSNAMGWYRQAPGKERELVARISTGGSTYADSEKGRFTISRDNAKNTVYLQMNSLKPEDTSFFYCAKLPPRGIDDEYWGQGTQVTVSS | low polyreactivity |
| QVQLVESGGGLVQAGGSLRLSCAASGLTFYSYAMGWYRQAPGKERELVAAITSSDGSTYYADSVKGRFTISRDNAKNTVYLQMNSLKPEDTAVYYCNKDDNSYGLNYWGQGTQVTVSS | low polyreactivity |
| QVQLVESGGGLVQAGGSLRLSCAASGLTFYSYARGWYRQAPGKERELVATISGGGSTTYADSVKGRFTISRDNAKNTVYLQMNSLKPEDTAVYYCAAGYFLPVVWSTTNYIYDYWGQGTQVTVSS | high polyreactivity |
| QVQLVESGGGLVQAGGSLRLSCAASGLTFYTYAMGWYRQAPGKERELVAAISTNGGSTYADSVKGRFTISRDNAKNTVYLQMNSLKPEDTAVYYCAAVYRTTRYGYWGQGTQVTVSS | low polyreactivity |
| QVQLVESGGGLVQAGGSLRLSCAASGLTFYVYAMGWYRQAPGKERELVAAINWSGGNTYYADSVKGRFTISRDNAKNTVYLQMNSLKPEDTAVYYCAAELYYPVGFDYWGQGTQVTVSS | high polyreactivity |
| QVQLVESGGGLVQAGGSLRLSCAASGLTFYVYAMGWYRQAPGKERELVAAISSGGRTYYADSVKGRFTISRDNAKNTVYLQMNSLKPEDTAVYYCAAVRHRNYWGQGTQVTVSS | high polyreactivity |
| QVQLVESGGGLVQAGGSLRLSCAASGLTFYWYVMGWYRQAPGKERELVAAITGGGSSTYYADSVKGRFTISRDNAKNTVYLQMNSLKPEDTAVYYCAADYRGGIRYYRGAAYNYWGQGTQVTVSS | high polyreactivity |
| QVQLVESGGGLVQAGGSLRLSCAASGLTFYYYAMGWYRQAPGKERELVATITSSGARTYYADSVKGRFTISRDNAKNTVYLQMNSLKPEDTEVYYCAADYGIWQRGSHYWDMDYWGQGTQVTVSS | high polyreactivity |
| QVQLVESGGGLVQAGGSLRLSCAASGLTFYYYDMGWYRQAPGKERELVAAITSGGSSTYYADSVKGRITISRDNAKNTVYLQMNSLKPEDTAVYYCNADSPYIPYIYDYWGQGTQVTVSS | low polyreactivity |

| Sequence | polyreactivity (PSR sort gate) |
| --- | --- |
| QVQLVESGGGLVQAGGSLRLSCAASGLTFYYYVMGWYRQAPGKERELVAAINATGGRTYYADSVKGRFTISRDNAKNTVYLQMNSLKPEDTAVYYCAAYSGFYASYDYWGQGTLVTVSS | low polyreactivity |
| QVQLVESGGGLVQAGGSLRLSCAASGLTIFVNAMGCYRQAPGKERELVATISGGGSTYYADSVKGRFTISRDNAKNTVYLQMNSLKPEDTAVYYCNADVLFYTYYTRGRFDFDYWGQGTQVTVSS | low polyreactivity |
| QVQLVESGGGLVQAGGSLRLSCAASGLTIGYYAMGWYRQAPGKERELVATITWRGVRTYYADSVKGRFTISRDNAKNTVYLQMNSLKPEDTAVYYCDKGYWSKGERWFGGFGYWGQGTQVTVSS | low polyreactivity |
| QVQLVESGGGLVQAGGSLRLSCAASGLTINGNTMGLYRQAPGKERELVAVIDWSGGSTYYADSVKGRFTISRDNAKNTVYLQMNSLKPEDTAVYYCNAETRDPILYGEYDYWGQGTQVTVSS | low polyreactivity |
| QVQLVESGGGLVQAGGSLRLSCAASGLTIQRNDMGWYRQAPGKEREFVATITSNAGSTYYADSVKGRFTISRDNAKNTVYLQMNSLKPEDTAVYYCARERWWGDGYWGQGTQVTVSS | high polyreactivity |
| QVQLVESGGGLVQAGGSLRLSCAASGLTIWANTKGWYRQAPGKERELVAAISLSDGSTYYADSVKGRFTISRDNAKNTVYVQMNSLKPEDTAVYYCAARVQHYLATDDYWGQGTQVTVSS | low polyreactivity |
| QVQLVESGGGLVQAGGSLRLSCAASGLTIYHYAMGWYRQAPGKERELVAAISWNGGSTYYADSVKGRFTISRDNAKNTVYLQMNSLKPEDTAVYYCAVVFNPHRYTGVLAGYDYWGQGTQVTVSS | high polyreactivity |
| QVQLVESGGGLVQAGGSLRLSCAASGLTLAWYAMGWYRQAPGKERELVAAISWSGDSTYYADSVKGRFTISRDNAKNTVYLQMNSLKPEDTEVYYCATRVYGGYGYWGQGTQVTVSS | high polyreactivity |
| QVQLVESGGGLVQAGGSLRLSCAASGLTLEGYVMGWYRQAPGKERELVAAISRRGASTYYADSVKGRFTISRDNAKNTVYLQMNSLKTEDTAVYYCAAYGAYNNYRGQTSLGYGYDSWGQGTQVTVSS | high polyreactivity |
| QVQLVESGGGLVQAGGSLRLSCAASGLTLGHNAMGWYRQAPGKERELVAAITNYADSVKGRFTISRDNAKNTVYLQMNSLKPEDTAVYYCAADWWRVEMDYWGQGTQVTVSS | low polyreactivity |
| QVQLVESGGGLVQAGGSLRLSCAASGLTLQGYVMGWSRQAPGKERELVAAISTGGSTHYADSVKGRFTISRDNAKNTVYLQMNSLKPEDTAVYYCAAGWVLWFRDPQGRASYYWGQGTQVTVSS | high polyreactivity |
| QVQLVESGGGLVQAGGSLRLSCAASGLTLRRYAMGWYIQAPGKERELVASINSGTSTKYADSVKGRFTISRDNAKNTVYLQMKSLKPEDTALYYCGAAVYFPTAGSRRAYYYWGQGTQGTVSS | high polyreactivity |
| QVQLVESGGGLVQAGGSLRLSCAASGLTLRYYVMGWNSQAPGKERELVAAISSGGGSTYYADSVKGRFTISRDNAKNTVYLQMNSRKPEDTAVYYCAADSVSRYNGYDYWGQGTQVTVSS | high polyreactivity |
| QVQLVESGGGLVQAGGSLRLSCAASGLTLSYNAMGWYRPAPGKERELVAAIRSGGSTNYADAVKGRFTISRDNANNTVYLQMNSLKPEDTAVYYCAARCRYLPYRDGRYQSGYEYWGQGTQVTVSS | high polyreactivity |
| QVQLVESGGGLVQAGGSLRLSCAASGLTLTYYPMGLYRQAPGKERELVAAISSSGGSTYYADSVKGRFTISRDNAKNTVYLQMNSLKPEDSAVYDCAATRVSWTGRDDYWGQGTQVTVSS | high polyreactivity |
| QVQLVESGGGLVQAGGSLRLSCAASGLTLYYYAMGWYRQAPGKERELVAAMSYSGGSTYYADSVKGRFTISRDNAKNPVYLQMNSVKPEDTAVYYCAAVGDSDIRDEYWGQGTQVTVSS | low polyreactivity |
| QVQLVESGGGLVQAGGSLRLSCAASGLTSEGNAMGWYRQAPGKERELVAAIDYRGGSTYYADSVKGRFTISRDNAKNSVYLQMNSLKPEDTAVYYCAADYPRGYIDDGDYWGQGTQVTVSS | low polyreactivity |
| QVQLVESGGGLVQAGGSLRLSCAASGLTSVSNAMGWYRPAPGKERELVAAISSRGGITYYADSVKGRFTISRDNAKNTVYLQMNSLKPEDTAVYYCAKKTVQRGYYYWGQGTQVTVSS | high polyreactivity |
| QVQLVESGGGLVQAGGSLRLSCAASGLTSWYNAMGWYRQAPGKEREFVAAISFSGGRTFYADSVKGRFTISRDNAKKTVYLQMNSLKPEDTAGYYCNADVYGFDYWGQGTQVTVSS | high polyreactivity |
| QVQLVESGGGLVQAGGSLRLSCAASGLTSYFYDMGWYRQAPGKERELVAAIRASAARTYYADTVKGRFTISRDNAKNTVYLQMNSLKPEDTAVYSCAARYGYWRQFRWKYDYWGHGTQVTVSS | high polyreactivity |
